For series [1], the target named is T1, TtCsm6 (Thermus thermophilus, UniProt Q53W17).
T1 construct: gene csm6; synthesized gene, N-terminal 6xHis tag removed with PreScission protease; expressed in E. coli Rosetta (DE3); homodimer; CARF-HTH-HEPN
T1 sequence (Q53W17 1-464): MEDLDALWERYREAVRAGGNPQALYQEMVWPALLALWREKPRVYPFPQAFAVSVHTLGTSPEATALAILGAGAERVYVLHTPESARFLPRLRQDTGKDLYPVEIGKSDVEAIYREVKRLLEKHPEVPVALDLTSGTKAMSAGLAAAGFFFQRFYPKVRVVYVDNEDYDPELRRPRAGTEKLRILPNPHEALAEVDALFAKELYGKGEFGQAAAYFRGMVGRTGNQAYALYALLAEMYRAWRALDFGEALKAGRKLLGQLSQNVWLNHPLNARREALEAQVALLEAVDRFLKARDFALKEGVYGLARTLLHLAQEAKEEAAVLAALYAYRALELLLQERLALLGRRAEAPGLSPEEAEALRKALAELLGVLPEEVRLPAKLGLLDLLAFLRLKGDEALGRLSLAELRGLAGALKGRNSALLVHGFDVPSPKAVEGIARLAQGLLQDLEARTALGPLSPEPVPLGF
As to the kind of experiment: crystal structure […] Å (co-crystallised with cA4). The format is binding. The note with it: post-cleavage state; two A2>P across the CARF dimer interface; pH 8.5, Mg2+ in crystal.

Series [2] concerns the molecule itself. As to the kind of experiment: crystal structure; TtCsm6 (12 mg/mL) pre-incubated with cA4 1:1.2 for 3 h at room temperature; hanging drop, 25 °C; post-cleavage state with two A2>P bound; homodimer.
Series [3] deals with the molecule itself. Nature of the series: crystal structure; TtCsm6 Y161A (10 mg/ml) pre-incubated with cA4 1:1.2 at 4 °C for 30 min; hanging drop, 25 °C; pre-cleavage state with cA4 bound; homodimer.
Series [4] concerns the molecule itself. As to the kind of experiment: crystal structure; TtCsm6 K137A (13 mg/mL) alone; hanging drop, 25 °C; apo state, no metal ion in the HEPN domain; homodimer.

Positions count from the first letter of the chain named. Numbers in names are those of the source.

`Nc1ncnc2c1ncn2[C@@H]1O[C@H](CO)[C@@H](OP(=O)(O)OC[C@H]2O[C@@H](n3cnc4c(N)ncnc43)[C@@H]3OP(=O)(O)O[C@@H]32)[C@H]1O` [A2 > P]: the “crystal structure 1.81 Å (co-crystallised with cA4)” value in series [1] is recorded as “cA4 in the CARF domain was cleaved into two A2 > P molecules”.

B1: Thermus thermophilus (Tt) Csm6, wild type (enzyme)
chain: T1 sequence (Q53W17 1-464)
notes: Csm6 of Thermus thermophilus, GenBank ID 81626039; synthesized cDNA in a modified pET vector; Crystallised after pre-incubation with cA4, which was cleaved to two A2>P in the crystal (post-cleavage state); Homodimer in the crystal; also called WT; source: E. coli Rosetta (DE3), purified (Ni-NTA, 15Q, Superdex 200); not shown: His6, N-terminal, cleaved
For the molecule B1, the binding result in series [2] is listed as “binds”.

B2: TtCsm6 Y161A mutant (enzyme, Thermus thermophilus)
chain: T1 sequence (Q53W17 1-464) with Y161A
notes: Csm6 of Thermus thermophilus, GenBank ID 81626039, with Y161A; Crystallised with uncleaved cA4 (pre-cleavage state); Homodimer in the crystal; source: E. coli Rosetta (DE3), purified (Ni-NTA, 15Q, Superdex 200); not shown: His6, N-terminal, cleaved
Turning to B2, in series [3], the binding result is listed as “binds”.

B3: TtCsm6 K137A mutant (enzyme, Thermus thermophilus)
chain: T1 sequence (Q53W17 1-464) with K137A
notes: Csm6 of Thermus thermophilus, GenBank ID 81626039, with K137A; Homodimer in the crystal; also called apo-TtCsm6 (Ni-free structure); source: E. coli Rosetta (DE3), purified (Ni-NTA, 15Q, Superdex 200); not shown: His6, N-terminal, cleaved
Regarding B3, in series [4], the binding result is “binds”.

The record behind these values is paper PMC10897365, “Molecular mechanism of allosteric activation of the CRISPR ribonuclease Csm6 by cyclic tetra-adenylate” (The EMBO Journal, 2023).
